Data: publication PMC11384143 (2024)
Read-outs that look alike come from different tables or passages of the source.

B1: hu1H9 (an analogue of FSI-189, Gilead) (antibody, V domains shown)
VH: QVQLVQSGAEVKKPGASVKVSCKASGYTFTSYWITWVKQAPGQGLEWIGDIYPGSGSTNHIEKFKSKATLTVDTSISTAYMELSRLRSDDTAVYYCATGYGSSYGYFDYWGQGTLVTVSS
VL: DIQMTQSPSSLSASVGDRVTITCRASENIYSYLAWYQQKPGKAPKLLIYTAKTLAEGVPSRFSGSGSGTDFTLTISSLQPEDFATYYCQHQYGPPFTFGQGTKLEIK
B2: 6 × His tagged cynomolgus SIRPα ECD recombinant protein (domain or fragment)
chain: EEELQVIQPEKSVSVAAGDSATLNCTVSSLIPVGPIQWFRGAGPGRELIYNLKEGHFPRVTPVSDPTKRNNMDFSIRISNITPADAGTYYCVKFRKGSPDVELKSGAGTELSVRAKPSAPVVSGPAVRATAEHTVSFTCESHGFSPRDITLKWFKNGNELSDVQTNVDPAGKSVSYSIRSTARVVLTRRDVHSQVICEVAHVTLQGDPLRGTANLSEAIRVPPFLEVTQQSMRADNQVNVTCQVTKFYPQRLQLTWLENGNVSRTEMASALPENKDGTYNWTSWLLVNVSAHRDDVKLTCQVEHDGQPAVNKSFSVKVSAHPKEQGSNTAAENTGTNERN
B3: 6 × His tagged huSIRPγ ECD recombinant protein (domain or fragment)
chain: EEELQMIQPEKLLLVTVGKTATLHCTVTSLLPVGPVLWFRGVGPGRELIYNQKEGHFPRVTTVSDLTKRNNMDFSIRISSITPADVGTYYCVKFRKGSPENVEFKSGPGTEMALGAKPSAPVVLGPAARTTPEHTVSFTCESHGFSPRDITLKWFKNGNELSDFQTNVDPTGQSVAYSIRSTARVVLDPWDVRSQVICEVAHVTLQGDPLRGTANLSEAIRVPPTLEVTQQPMRVGNQVNVTCQVRKFYPQSLQLTWSENGNVCQRETASTLTENKDGTYNWTSWFLVNISDQRDDVVLTCQVKHDGQLAVSKRLALEVTVHQKDQSSDATP
B4: HEFLB (an analogue of BI 765063) (antibody, V domains shown)
VH: EVQLVQSGAEVKKPGESLRISCKASGYSFTSYWVHWVRQMPGKGLEWMGNIDPSDSDTHYSPSFQGHVTLSVDKSISTAYLQLSSLKASDTAMYYCVRGGTGTLAYFAYWGQGTLVTVSS
VL: DVVMTQSPLSLPVTLGQPASISCRSSQSLVHSYGNTYLYWFQQRPGQSPRLLIYRVSNRFSGVPDRFSGSGSGTDFTLKISRVEAEDVGVYYCFQGTHVPYTFGGGTKVEIK

How the values were obtained:
[1] = target: B3; test: SPR
[2] = target: T1, 6 × His tagged huSIRPα V1 ECD recombinant protein (human, UniProt P78324 31-373); test: SPR
T1 sequence (P78324 31-373): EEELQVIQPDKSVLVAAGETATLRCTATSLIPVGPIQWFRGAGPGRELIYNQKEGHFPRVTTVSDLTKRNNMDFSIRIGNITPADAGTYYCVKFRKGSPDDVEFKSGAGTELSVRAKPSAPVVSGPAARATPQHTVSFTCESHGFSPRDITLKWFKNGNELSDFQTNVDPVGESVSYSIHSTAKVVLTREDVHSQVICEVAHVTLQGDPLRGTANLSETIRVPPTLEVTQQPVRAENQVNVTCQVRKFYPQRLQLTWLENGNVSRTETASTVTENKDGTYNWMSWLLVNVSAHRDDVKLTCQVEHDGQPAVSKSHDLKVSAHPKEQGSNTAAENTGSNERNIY

[3] = target: B3; test: SPR
[4] = target: huSIRPα V2 overexpressed on CHOK1/hSIRPα V2 cells (human, UniProt P78324 31-504); test: FACS; competition with huCD47 ECD
Chain of huSIRPα V2 overexpressed on CHOK1/hSIRPα V2 cells (P78324 other isoform, or with tags, fused parts or gaps): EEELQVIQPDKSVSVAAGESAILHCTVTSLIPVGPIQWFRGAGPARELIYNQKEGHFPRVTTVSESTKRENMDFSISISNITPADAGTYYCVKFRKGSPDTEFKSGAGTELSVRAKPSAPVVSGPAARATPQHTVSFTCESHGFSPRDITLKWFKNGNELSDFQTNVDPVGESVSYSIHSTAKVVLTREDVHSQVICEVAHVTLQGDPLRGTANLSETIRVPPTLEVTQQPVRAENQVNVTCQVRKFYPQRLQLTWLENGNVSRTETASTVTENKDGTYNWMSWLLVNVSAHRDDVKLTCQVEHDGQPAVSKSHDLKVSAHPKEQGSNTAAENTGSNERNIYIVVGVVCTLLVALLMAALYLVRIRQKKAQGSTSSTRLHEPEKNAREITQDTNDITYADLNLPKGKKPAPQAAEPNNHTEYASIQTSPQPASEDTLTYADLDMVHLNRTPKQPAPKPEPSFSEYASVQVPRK

[5] = target: huSIRPα V1 overexpressed on CHOK1/hSIRPα V1 cells (human, UniProt P78324 31-504); test: FACS; competition with huCD47 ECD
Chain of huSIRPα V1 overexpressed on CHOK1/hSIRPα V1 cells (P78324 31-504): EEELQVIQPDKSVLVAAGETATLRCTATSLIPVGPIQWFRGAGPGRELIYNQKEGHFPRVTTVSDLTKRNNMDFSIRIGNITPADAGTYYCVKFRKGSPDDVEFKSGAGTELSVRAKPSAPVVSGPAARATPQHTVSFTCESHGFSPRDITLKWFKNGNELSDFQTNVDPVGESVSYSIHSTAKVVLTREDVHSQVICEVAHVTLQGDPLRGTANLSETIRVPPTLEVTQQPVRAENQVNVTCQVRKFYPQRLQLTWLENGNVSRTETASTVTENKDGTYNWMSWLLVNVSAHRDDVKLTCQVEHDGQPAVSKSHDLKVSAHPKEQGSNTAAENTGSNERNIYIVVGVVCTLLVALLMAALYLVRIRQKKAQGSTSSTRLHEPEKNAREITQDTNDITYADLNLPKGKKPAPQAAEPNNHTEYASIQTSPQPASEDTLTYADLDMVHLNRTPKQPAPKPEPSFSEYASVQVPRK

[6] = target: T1, 6 × His tagged huSIRPα V1 ECD …; test: SPR; remark: listed apart in the source
ES004-B5 [7] = test: SPR
ES004-B5 [8] = test: SPR; remark: listed apart in the source

Binder: B1
- Kd [1]: 20.7 nM
- Kd [2]: 1.91 nM
- koff [3]: 0.0135 s⁻¹
- IC50 [4]: 6.04 nM
- IC50 [5]: 1.17 nM
- koff [6]: 0.00187 s⁻¹

Binder: B2
- Kd (ES004-B5 [7]): 6.01 nM
- koff (ES004-B5 [7]): 0.00729 s⁻¹

Binder: B3
- Kd (ES004-B5 [8]): 2.81 nM
- koff (ES004-B5 [8]): 0.00422 s⁻¹

Binder: B4
- Kd [2]: 12.8 nM
- IC50 [5]: 1.29 nM
- koff [6]: 0.00631 s⁻¹
